Results from patent publication US20220118053A1 (ASCENDIS PHARMA GROWTH DISORDERS A S, published 2022).
Bridges are numbered along the chain shown (N, C = ends). Where no end group is shown, it is not given here.

Target: T1, NPR-B receptor (UniProt P20594 23-1047, limits assumed)
T1 sequence (looked up): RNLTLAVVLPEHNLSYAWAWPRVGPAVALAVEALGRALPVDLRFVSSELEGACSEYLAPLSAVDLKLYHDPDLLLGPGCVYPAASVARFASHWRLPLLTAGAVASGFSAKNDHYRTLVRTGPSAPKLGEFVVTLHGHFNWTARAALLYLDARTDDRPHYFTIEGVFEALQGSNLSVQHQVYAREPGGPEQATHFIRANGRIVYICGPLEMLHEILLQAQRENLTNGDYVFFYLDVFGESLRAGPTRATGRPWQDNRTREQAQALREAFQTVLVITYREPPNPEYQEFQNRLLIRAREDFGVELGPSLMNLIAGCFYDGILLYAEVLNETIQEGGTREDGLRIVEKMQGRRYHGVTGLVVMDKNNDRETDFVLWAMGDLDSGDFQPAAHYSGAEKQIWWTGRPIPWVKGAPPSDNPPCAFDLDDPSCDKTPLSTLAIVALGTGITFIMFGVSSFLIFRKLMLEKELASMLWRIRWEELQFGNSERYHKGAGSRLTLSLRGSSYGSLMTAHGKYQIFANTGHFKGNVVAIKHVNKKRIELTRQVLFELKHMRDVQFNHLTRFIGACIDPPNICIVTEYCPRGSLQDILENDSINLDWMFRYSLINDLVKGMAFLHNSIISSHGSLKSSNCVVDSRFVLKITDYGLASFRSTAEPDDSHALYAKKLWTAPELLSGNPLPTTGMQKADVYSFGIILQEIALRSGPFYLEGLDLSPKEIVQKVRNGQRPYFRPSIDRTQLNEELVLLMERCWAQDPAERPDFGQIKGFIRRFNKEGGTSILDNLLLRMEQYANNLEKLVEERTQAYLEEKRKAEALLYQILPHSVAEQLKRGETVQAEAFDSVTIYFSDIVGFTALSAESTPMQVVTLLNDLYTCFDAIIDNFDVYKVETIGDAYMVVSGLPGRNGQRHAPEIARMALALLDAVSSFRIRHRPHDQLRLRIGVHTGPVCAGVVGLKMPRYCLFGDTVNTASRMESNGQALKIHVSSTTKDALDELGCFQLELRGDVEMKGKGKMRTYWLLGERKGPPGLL
Assay: cell-based or functional assay

LQEHPNARKYKGANKKGLSKGCFGLKLDRIGSMSGLGC (disulfide 22-38) [CNP-38] was tested, and the “Biopotency (%), F13, T0; cGMP stimulation in NPR-B overexpressing Hek293 cells, relative to CNP-38 reference standard” value was 93%, the “Biopotency (%), F13, T3M, 5° C.; cGMP stimulation in NPR-B overexpressing Hek293 cells, relative to CNP-38 reference standard” value was 107% and the “Biopotency (%), F13, T3M, 25° C.; cGMP stimulation in NPR-B overexpressing Hek293 cells, relative to CNP-38 reference standard” value was 91%. For the same binder, the “Biopotency (%), F13, T3M, 30° C.; cGMP stimulation in NPR-B overexpressing Hek293 cells, relative to CNP-38 reference standard” value was 96%, the “Biopotency (%), F13, T3M, 40° C.; cGMP stimulation in NPR-B overexpressing Hek293 cells, relative to CNP-38 reference standard” value was 94% and the “Biopotency (%), F13, T6M 25° C.; cGMP stimulation in NPR-B overexpressing Hek293 cells, relative to CNP-38 reference standard” value was 106%. The “Biopotency (%), F13, T6M, 5° C.; cGMP stimulation in NPR-B overexpressing Hek293 cells, relative to CNP-38 reference standard” value was 95% and the “Biopotency (%), F13, T6M, 30° C.; cGMP stimulation in NPR-B overexpressing Hek293 cells, relative to CNP-38 reference standard” value was 89%.
